Measurements: the supplement of paper PMC9732359
± gives the uncertainty stated by the source.

Assay: protein stability index of a GFP-peptide fusion (yeast GPS) (PSI 1-4); higher = more stable; sorted into four equal gates, so the index is relative within each strain
Procedure, shortened: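 For each peptide, the protein stability index sums the read frequency in every gate after multiplying it by the gate number. Read frequencies came from plasmids that were PCR-amplified from each gate and Illumina-sequenced, with reads assigned to strains by barcodes. The gates were four equal bins of GFP/Cherry fluorescence ratio applied to mid-log yeast in leucine-free medium carrying a pooled library of tiled 17-residue yeast protein peptides fused downstream of GFP on a Cherry-expressing plasmid.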

Sequence	protein stability index (doa10∆)	protein stability index (pdr5∆)	protein stability index (san1∆)	protein stability index (ubr1∆)
CSDFVKILNLEKPLILA [NUT1]	2.01 ± 0.097	1.39 ± 0.064	1.34 ± 0.17	1.08 ± 0.071
KTAQTLDENLNSLSSNL [YJL041W/NSP1]	2.48 ± 0.04	2.29 ± 0.055	2.23 ± 0.061	2.46 ± 0.037
DVDQHGNDNNSDSNANA [SWI3]	3.01 ± 0.045	3.25 ± 0.046	3.245 ± 0.028	3.249 ± 0.028
EVKEQLGILKKKRFDEF [SMC4]		2.68 ± 0.22	2.35 ± 0.23	3.03 ± 0.12
RFKVVKVSGVSLLALWK [RPS23A]	2.55 ± 0.22	1.59 ± 0.14	1.71 ± 0.14	1.81 ± 0.14
VFTALLRLFINEEGDWS [ITC1]	3.4 ± 0.29	2.08 ± 0.17		
KNLQRESCEDILDLKEF [RTT102]	3.59 ± 0.21	3.31 ± 0.13	3.17 ± 0.28	3.45 ± 0.16
TSVENEGPVANLKDYEL [REC8]	3.38 ± 0.11	3.41 ± 0.12	3.03 ± 0.13	3.16 ± 0.076
DGHYIEENSQGNILDFN [REC8]	3.23 ± 0.11	2.67 ± 0.098	2.89 ± 0.065	2.81 ± 0.1
MKQYRDFLGVASTGSGK [PRP28]	2.77 ± 0.1	2.72 ± 0.12	2.88 ± 0.061	2.93 ± 0.043
YGNRAEQFLETDSDFAK [SRP68]	3.15 ± 0.12	2.99 ± 0.08	3.26 ± 0.083	3.23 ± 0.065
WNLLRSLYIFFTTLLES [YML103C/NUP188]	2.08 ± 0.058	1.58 ± 0.044	1.69 ± 0.06	1.43 ± 0.028
MVATVKRTIRIKTQQHI [TAF14]	1.62 ± 0.09	1.95 ± 0.053	1.53 ± 0.14	1.56 ± 0.09
GRIPLHWSVSFQAHEIT [NAS6]	2.87 ± 0.057	2.84 ± 0.056	2.48 ± 0.073	2.69 ± 0.037
KIVYIAPLKALVQEQVR [BRR2]	1.4 ± 0.045	1.59 ± 0.044	1.41 ± 0.089	1.3 ± 0.051
YTKETYQSRGIDAMKAV [RPN6]	2.59 ± 0.069	2.86 ± 0.072	2.83 ± 0.064	2.39 ± 0.047
VFKLSTNLISKISLLRP [SWP82]	2.11 ± 0.099	2.43 ± 0.1	2.13 ± 0.18	2.87 ± 0.088
IQRETLLPTNNGQPLNQ [GRR1]	2.53 ± 0.072	2.91 ± 0.071	2.64 ± 0.06	2.65 ± 0.057
TAVLSTTARAKARAKKT [RPN2]	3.31 ± 0.11	3.17 ± 0.077	3.15 ± 0.075	3.19 ± 0.072
DITGDIRNEGSDAEEEE [ISW2]	2.83 ± 0.16	3.1 ± 0.1	3.05 ± 0.089	2.91 ± 0.068
VVNDLVGEKLVVVVLEE [SIR3]	3.42 ± 0.076	3.18 ± 0.067	3.42 ± 0.042	3.53 ± 0.081
MCEQALSALFTISSKPD [YCS4]	2.22 ± 0.038	1.72 ± 0.04	1.87 ± 0.056	1.77 ± 0.032
KRIKGLEFSALSAADIV [RPO31]	3.09 ± 0.09	3.15 ± 0.076	3.15 ± 0.061	3.24 ± 0.067
GNSKDDLLDMIQFGAKN [ISW2]	3.14 ± 0.2	2.89 ± 0.16	2.95 ± 0.11	2.92 ± 0.093
VVDFLKRNGSTLEQKVN [FAS1]	2.83 ± 0.057	3.03 ± 0.049	2.87 ± 0.048	3.07 ± 0.04
FEIIDEASKKSAVKPRP [FAS1]	3.21 ± 0.13	3.28 ± 0.14	3.45 ± 0.064	3.3 ± 0.066
NKTLTFETETEVTFKNA [FAS1]	3.15 ± 0.078	3.23 ± 0.093	3.28 ± 0.084	3.35 ± 0.049

Sequence	protein stability index (doa10∆)	protein stability index (pdr5∆)	protein stability index (san1∆)	protein stability index (ubr1∆)
QQRIREIGLLPEDALVN [SMC3]			3.27 ± 0.2	3.25 ± 0.13
KPNQTIMVLDASIGQAA [SRP54]	2.44 ± 0.095	2.65 ± 0.075	2.69 ± 0.07	2.64 ± 0.049
KQREIVKAFLSIFEDAI [NUT1]	1.92 ± 0.081	1.65 ± 0.071	2.38 ± 0.19	1.76 ± 0.1
YELYINKLTILGRDYPI [IRR1]	1.31 ± 0.032	1.57 ± 0.038	1.44 ± 0.055	2.04 ± 0.032
RMAKYLNNTHVISSGPL [RPC53]	2.96 ± 0.13	2.91 ± 0.16	2.74 ± 0.074	2.47 ± 0.069
SYQPMYQRPMQVQGQQQ [SSN3]	1.46 ± 0.043	1.71 ± 0.06	1.92 ± 0.11	1.89 ± 0.054
PHLFVNGDLTVSLCAKN [SSN2]	1.95 ± 0.079	2.12 ± 0.081	2.25 ± 0.18	1.87 ± 0.074
AVSTIASISLAIGYPTL [RPP0]	1.92 ± 0.055	2.12 ± 0.056	1.53 ± 0.1	2.15 ± 0.049
SKLKEEEAALLIKERQE [ESC2]	2.85 ± 0.074	2.88 ± 0.065	2.83 ± 0.043	2.9 ± 0.054
VDVLVISSHSHPVSLIS [RRP42]	1.5 ± 0.046	1.53 ± 0.048	1.57 ± 0.062	1.67 ± 0.03
YTREFVEAIRRSNQYQR [NUT2]	2.26 ± 0.07	2.18 ± 0.05	2.88 ± 0.12	2.21 ± 0.082
GISDDENDEEDIYMHDV [RRP4]	3.33 ± 0.13	3.31 ± 0.14	2.99 ± 0.12	3.46 ± 0.12
EALIEFIYDTEKNGGLG [FAS2]	2.52 ± 0.079	2.63 ± 0.076	2.67 ± 0.054	2.17 ± 0.055
MGSRRYDSRTTIFSPEG [PRE9]	3.36 ± 0.2	3.01 ± 0.17	2.89 ± 0.19	3.06 ± 0.15
TENATENDQQDNEEWMN [LIN1]	3.23 ± 0.072	3.03 ± 0.067	3.06 ± 0.062	2.77 ± 0.05
AQANNNNNGLPQNGNIN [GAL11]	3.04 ± 0.049	3.11 ± 0.049	3.05 ± 0.056	2.98 ± 0.038
DDEPTTPAELVGKFLGY [FAS1]	3.51 ± 0.13	3.34 ± 0.14	3.16 ± 0.08	3.2 ± 0.12
LYYRPHINKKSQLDLFL [GRR1]	1.78 ± 0.071	2.17 ± 0.12	1.28 ± 0.1	1.85 ± 0.093
PGTNGKVKKPLKYLSVE [PRE7]		3.5 ± 0.14	3.15 ± 0.09	3.24 ± 0.12
CKIDFQKNFMDQFQWIL [RRI2]		1.47 ± 0.092	1.55 ± 0.24	1.93 ± 0.13
MFTYSQETQHGNITRGL [RPN2]	3.28 ± 0.08	3.12 ± 0.12	3.13 ± 0.06	3.21 ± 0.046
ANNYSSNIGNNSINNNN [YDL088C/ASM4]	2.51 ± 0.071	3.19 ± 0.078	2.94 ± 0.085	2.76 ± 0.054
NLQAKPLVGKPKTELTK [YAR002W/NUP60]	2.72 ± 0.098	2.52 ± 0.067	2.7 ± 0.088	2.39 ± 0.1
EKIKMKLKQGQKLFVQV [GAL11]	2.85 ± 0.13	3.2 ± 0.09	3.28 ± 0.074	3.23 ± 0.14
GCLIKNLPRTKAKSVVN [RMP1]	2 ± 0.11	2.52 ± 0.2	1.92 ± 0.17	2.13 ± 0.12
VLTRMDEDRSKKEEELG [SNF2]	3.51 ± 0.11	3.22 ± 0.1	3.38 ± 0.071	3.27 ± 0.084
